Test results reported in patent US20240376149A1, “Novel Modulators of GABABR1a” (VIB VZW, priority 2021, published 2024).
*1 amine or outer side, *2 acyl side, *3 side chain or, on linkers, in order; H or OH if unused. Where a SMILES comes first, the peptide text is derived from it. Where no end group is shown, it is not given here. [ ]: non-standard residue; d: D form. The star is where a group is joined. X1 = CCn1cc(C[C@H](N[*:1])C(=O)[*:2])c2ccccc21; X3 = COc1ccc(C[C@H](N[*:1])C(=O)[*:2])cc1C; X4 = O=C([C@H](Cc1ccc(CO)cc1)N[*:1])[*:2]; Piperazinyl(4-Me) = CN1CCN(*)CC1; Ac4c = NC1(C(=O)O)CCC1

B1: VIB-0068912 (peptide)
peptide: DIXWS
modifications: D-aspartic acid at position 1; position 3 (X) is the non-natural residue F86 = 1-chloro-4-methylbenzene
notes: Peptidomimetic 5-mer; X marks the non-natural residue
B2: VIB-0068896 (peptide)
peptide: DIXWS
modifications: D-aspartic acid at position 1; position 3 (X) is the non-natural residue F44 = (4-methylphenyl)methanol
notes: as for B1
B3: VIB-0068909 (peptide)
peptide: DIXWS
modifications: D-aspartic acid at position 1; position 3 (X) is the non-natural residue F57 = 4-methylaniline
notes: as for B1

What follows are molecules tested against T1, Sushi domain 1 of the human GABA B1a receptor (human, UniProt Q9UBS5 26-96) (assay: FP competition vs FITC-9mer on purified SD1). Conditions: not given.
T1 construct: Purified recombinant protein from E. coli; also called SD1; GABABR1a-SD1
T1 sequence (Q9UBS5 26-96 limits assumed): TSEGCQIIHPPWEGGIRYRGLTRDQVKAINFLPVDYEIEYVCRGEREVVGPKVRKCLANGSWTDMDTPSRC
Method: (§1) To screen for GABABR1a binders using unlabelled test compounds, the assay was turned into a competition assay using FITC-9mer. […] To validate this inhibitor assay, the IC50 values were determined of the 17-mer, 9-mer, 5-mer as well as those from 3 negative controls: 10-mer, scrambled 17-mer and a scrambled 9-mer (FIG. 2).
Based on structural information of DIYWS-SD1 and DIWWS-SD1 co-crystals, 48 peptides containing non-natural residues were manually designed and checked for binding to the GABABR1a SD1 in the FP assay at a concentration of 50 μM. These non-natural peptides were categorized based on the IC50 values obtained in the FP assay (Table 3). […] The listed non-natural 5-mers all share D-aspartate was on position 1 (residue position 4 of the 9-mer), L-isoleucine on position 2 (residue position 5 of the 9-mer), L-tryptophane on position 4 (residue position 7 of the 9-mer) and L-serine on position 5 (residue position 8 of the 9-mer), while position 3 is selected from the list consisting of L-tyrosine, isoethylmethyl-benzene, 6-chloro-3-methyl-1H-indole, methylcyclohexane, ethylcyclohexane, 2-naphthalene, ethylbenzene, 1,1-difluoro-4-cyclohexyl, 4-methyl-1-methoxy-2-methylbenzene, 1-chloro-4-methylbenzene, 4-methylphenyl-methanol, 3-methylbenzoic acid and 4-methylaniline.
In the case of B1, the “% inhibition 50 µM” value is reported as 66.2% and the IC50 is reported as 32.7 µM. For B2, the “% inhibition 50 µM” value was 56.6% and the IC50 was 48 µM. In the case of B3, the “% inhibition 50 µM” value is reported as 44.2% and the IC50 is reported as 88.3 µM. In the case of [dD]IYWS-{N‑(1,3,4-thiadiazol-2-yl)amide} (also called VIB-0068870-001; dIYWS*) [VIB-0068870], the “% inhibition 50 µM” value is reported as 34.6% and the IC50 is reported as 16.5 µM. [dD]IYWS-{N‑(2-(4-methylpiperazin-1-yl)-2-oxoethyl)amide} (also called dIYWS**) [VIB-0068875] was tested, and the “% inhibition 50 µM” value was 41.8% and the IC50 was 71.2 µM. With {(1-aminocyclobutyl)N‑methanone}-[dD]IYWS (not fully specified, also called *dIYWS) [VIB-0068884] the “% inhibition 50 µM” value was 41.5% and the IC50 was 100 µM. [dD]IYWS (also called dIYWS) [VIB-0068902] was tested, and the “% inhibition 50 µM” value was 76.8%. For [dD]IYYS (also called dIYYS) [VIB-0068914], the “% inhibition 50 µM” value was 72.4%.

Molecular target: T1, Sushi domain 1 of the human GABA B1a …
Assay: FP competition vs FITC-9mer on purified SD1
Conditions: not given
Remark: another data set of the same source
Method: Next, 35 variants of the DVWWG 5-mer peptide containing natural residues were tested in the above described FP assay. The peptides were tested at a concentration of 50 μM.
(§2) To determine if the peptides of this application were able to disrupt the SD1-9-mer complex, each peptide (in single point or dose-response curve) tested was incubate with SD1 protein for 1 h at RT. After this initially incubation, FITC-9mer was added to the previous mix and incubated during 2 h at RT. The signal intensity was measure in an appropriate plate reader using the following settings: Number of flashes per well: 200; Excitation: F482-16; Dichroic filter: FLP 504; Emission A F530-40; Gain A: 738, Gain B: 736. The assay was conducted in a 384-well plate.
With DIWWG (also called VIB_29) [VIB_P29] the “% inhibition 50 µM” value was 75% and the IC50 was 16.5 µM. DIFWS [VIB_P35] was tested, and the “% inhibition 50 µM” value was 55.9%. In the case of DIHWS [VIB_P37], the “% inhibition 50 µM” value is reported as 20% and the IC50 is reported as 35.6 µM. With DVWWS [VIB_P39] the “% inhibition 50 µM” value was 85.5% and the IC50 was 14 µM. With SVYWS [VIB_P41] the “% inhibition 50 µM” value was 5.28%. With DIYWG [VIB_P42] the “% inhibition 50 µM” value was 47.9%. DIYWS (not fully specified, also called VIB_43; DIYWS) [VIB_P43] was tested, and the “% inhibition 50 µM” value was 48.6% and the IC50 was 21.2 µM. For GIYWS [VIB_P47], the “% inhibition 50 µM” value was 53.4%. With NVWWS [VIB_P48] the “% inhibition 50 µM” value was 33.5%. In the case of PIYWS [VIB_P49], the “% inhibition 50 µM” value is reported as 25%. With DVYWG [VIB_P53] the “% inhibition 50 µM” value was 33.5%. NVWWG [VIB_P56] was tested, and the “% inhibition 50 µM” value was 17.9%. With NFYWS [VIB_P58] the “% inhibition 50 µM” value was -7%. In the case of GVYWS [VIB_P60], the “% inhibition 50 µM” value is reported as 47.5%. For NIYWS [VIB_P63], the “% inhibition 50 µM” value was 19.4%. NIWWG [VIB_P65] was tested, and the “% inhibition 50 µM” value was 41.4%. In the case of NIWWS [VIB_P66], the “% inhibition 50 µM” value is reported as 66.4%. In the case of NIYWG [VIB_P68], the “% inhibition 50 µM” value is reported as 15.9%. PVHMS [VIB_P44] was tested, and the “% inhibition 50 µM” value was -7% and the IC50 was 186 µM.

Each molecule was assayed against T1, Sushi domain 1 of the human GABA B1a … (assay: ITC, peptide titrated into purified SD1). Conditions: not given.
Method: The Sushi-1 protein was dialysed overnight to PBS buffer and diluted to 30 μM in the same buffer. The peptides were resuspended in PBS at a stock concentration of 3 mM and diluted further in the same buffer to 300 μM. ITC experiments were performed on a Microcal ITC200 device. Titrations comprised 26×1.5 μL injections of peptide into protein, with 90 s intervals. An initial injection of ligand (0.5 μL) was made and discarded during data analysis. The data were fitted to a single binding site model using the Microcal LLC ITC₂₀₀. Original software provided by the manufacturer.
Work on B2 yielded a Kd of 7.46 µM. With DVHWS [VIB_P23] the Kd was 25.1 µM. With PIHWS [VIB_P45] the Kd was 38 µM.

Each molecule was assayed against T2, GABABR1a-SD1 (SD1-FITC-9mer complex) (Homo sapiens, UniProt Q9UBS5) (assay: Fluorescence polarization (FP) competition assay with FITC-9mer). Conditions: competition with FITC-9mer for SD1.
T2 construct: The synthetic gene encoding for residues 26-96 of the Sushi1 protein was cloned into a pFloat-SUMO vector; His-SUMO (with 3C protease site) (N, cleaved yes); made in house; host or cells: E. coli BL21(DE3)
Format: binding
Method: Intrigued by the surprising results of the 5-mer, it was decided to set up a medium- to high-throughput screen to optimize the 5-mer sequence. Several assays were tested to find a reproducible, robust and cost-effective assay that is also suitable for high-throughput screening. A fluorescence polarization (FP) assay was selected. FP measurements are well-known for receptor binding assays. The assay is based on the rotational movement of fluorescently labelled molecules in solution. […] The FP assay was optimized using the FITC labelled sAPP 9-mer (FIG. 1).
as §1, §2
`CC[C@H](C)[C@H](NC(=O)[C@H](N)CC(=O)O)C(=O)N[C@@H](Cc1ccc(O)cc1)C(=O)N[C@@H](Cc1ccc(O)cc1)C(=O)N[C@@H](CO)C(=O)O` [VIB-0068914, dIYYS] (H-[dD]IYYS-OH; N-terminus and C-terminus assumed) was tested, and the IC50 was 25.1 µM. Work on `CC[C@H](C)[C@H](NC(=O)[C@H](N)CC(=O)O)C(=O)N[C@@H](Cc1ccc(O)cc1)C(=O)N[C@@H](Cc1c[nH]c2ccccc12)C(=O)N[C@@H](CO)C(=O)O` [VIB-0068902, dIYWS] yielded an IC50 of 11.6 µM.

Same assay, conditions: peptide at 50 μM; inhibition of FITC-9mer binding to SD1
`CC[C@H](C)[C@H](NC(=O)[C@H](N)CC(=O)O)C(=O)N[C@@H](Cc1cccc(C(=O)O)c1)C(=O)N[C@@H](Cc1c[nH]c2ccccc12)C(=O)N[C@@H](CO)C(=O)O` [VIB-0068908] was tested, and the inhibition at 50 µM was 53.1%. For `CC[C@H](C)[C@H](NC(=O)[C@H](N)CC(=O)O)C(=O)N[C@@H](Cc1ccc(O)cc1)C(=O)N[C@@H](Cc1ccc(O)cc1)C(=O)N[C@@H](CO)C(=O)O` [VIB-0068914, dIYYS] (H-[dD]IYYS-OH; N-terminus and C-terminus assumed), the inhibition at 50 µM was 72.4%. `CC[C@H](C)[C@H](NC(=O)[C@H](N)CC(=O)O)C(=O)N[C@@H](Cc1ccc(OC)c(C)c1)C(=O)N[C@@H](Cc1c[nH]c2ccccc12)C(=O)N[C@@H](CO)C(=O)O` [VIB-0068906] (H-[dD]I[X3]WS-OH; N-terminus and C-terminus assumed) was tested, and the inhibition at 50 µM was 70.8%. PVHMS [VIB_P44] was tested, and the inhibition at 50 µM was -7%. In the case of `CC[C@H](C)[C@H](NC(=O)[C@H](N)CC(=O)O)C(=O)N[C@@H](Cc1ccc(N)cc1)C(=O)N[C@@H](Cc1c[nH]c2ccccc12)C(=O)N[C@@H](CO)C(=O)O` [VIB-0068909], the inhibition at 50 µM is reported as 44.2%. In the case of `CC[C@H](C)[C@H](NC(=O)[C@H](N)CC(=O)O)C(=O)N[C@@H](Cc1ccc(CO)cc1)C(=O)N[C@@H](Cc1c[nH]c2ccccc12)C(=O)N[C@@H](CO)C(=O)O` [VIB-0068896] (H-[dD]I[X4]WS-OH; N-terminus and C-terminus assumed), the inhibition at 50 µM is reported as 56.6%. `CC[C@H](C)[C@H](NC(=O)[C@H](N)CC(=O)O)C(=O)N[C@@H](Cc1ccc(O)cc1)C(=O)N[C@@H](Cc1c[nH]c2ccccc12)C(=O)N[C@@H](CO)C(=O)Nc1nncs1` [VIB-0068870] gave an inhibition at 50 µM of 34.6%. For `CC[C@H](C)[C@H](NC(=O)[C@@H](CC(=O)O)NC(=O)C1(N)CCC1)C(=O)N[C@@H](Cc1ccc(O)cc1)C(=O)N[C@@H](Cc1c[nH]c2ccccc12)C(=O)N[C@@H](CO)C(=O)O` [VIB-0068884] (H-[Ac4c][dD]IYWS-OH; C-terminus assumed), the inhibition at 50 µM was 41.5%. `CC[C@H](C)[C@H](NC(=O)[C@H](N)CC(=O)O)C(=O)N[C@@H](Cc1ccc(Cl)cc1)C(=O)N[C@@H](Cc1c[nH]c2ccccc12)C(=O)N[C@@H](CO)C(=O)O` [VIB-0068912] showed an inhibition at 50 µM of 66.2%. `CC[C@H](C)[C@H](NC(=O)[C@H](N)CC(=O)O)C(=O)N[C@@H](Cc1cn(CC)c2ccccc12)C(=O)N[C@@H](Cc1c[nH]c2ccccc12)C(=O)N[C@@H](CO)C(=O)O` [VIB-0068904] (H-[dD]I[X1]WS-OH; N-terminus and C-terminus assumed) gave an inhibition at 50 µM of 26.7%. Work on `CC[C@H](C)[C@H](NC(=O)[C@H](N)CC(=O)O)C(=O)N[C@@H](Cc1ccc(O)cc1)C(=O)N[C@@H](Cc1c[nH]c2ccccc12)C(=O)N[C@@H](CO)C(=O)O` [VIB-0068902, dIYWS] yielded an inhibition at 50 µM of 76.8%. With `CC[C@H](C)[C@H](NC(=O)[C@H](N)CC(=O)O)C(=O)N[C@@H](Cc1ccc(O)cc1)C(=O)N[C@@H](Cc1c[nH]c2ccccc12)C(=O)N[C@@H](CO)C(=O)NCC(=O)N1CCN(C)CC1` [VIB-0068875] (H-[dD]IYWSG-{Piperazinyl(4-Me)}; N-terminus assumed) the inhibition at 50 µM was 41.8%.
